Measured values published in US20130022605A1 (published 2013).
Substitutions are numbered along the chain they refer to.

T1: mouse TNFR1 on L929 cells (mouse, UniProt P25118 30-454)
T1 sequence (looked up): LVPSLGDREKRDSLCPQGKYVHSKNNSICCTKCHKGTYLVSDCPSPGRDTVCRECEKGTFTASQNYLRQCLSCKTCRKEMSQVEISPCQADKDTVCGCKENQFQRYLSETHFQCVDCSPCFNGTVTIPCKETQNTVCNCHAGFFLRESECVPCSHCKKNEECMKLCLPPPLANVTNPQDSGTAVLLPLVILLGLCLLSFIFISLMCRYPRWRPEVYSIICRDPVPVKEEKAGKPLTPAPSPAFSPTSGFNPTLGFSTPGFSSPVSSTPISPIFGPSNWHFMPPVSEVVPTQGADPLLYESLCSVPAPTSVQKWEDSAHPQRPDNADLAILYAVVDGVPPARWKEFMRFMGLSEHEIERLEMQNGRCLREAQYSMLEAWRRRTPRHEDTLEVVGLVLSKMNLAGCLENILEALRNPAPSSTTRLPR

T2: human TNFR1 on HeLa cells (human, UniProt P19438 30-455)
T2 sequence (looked up): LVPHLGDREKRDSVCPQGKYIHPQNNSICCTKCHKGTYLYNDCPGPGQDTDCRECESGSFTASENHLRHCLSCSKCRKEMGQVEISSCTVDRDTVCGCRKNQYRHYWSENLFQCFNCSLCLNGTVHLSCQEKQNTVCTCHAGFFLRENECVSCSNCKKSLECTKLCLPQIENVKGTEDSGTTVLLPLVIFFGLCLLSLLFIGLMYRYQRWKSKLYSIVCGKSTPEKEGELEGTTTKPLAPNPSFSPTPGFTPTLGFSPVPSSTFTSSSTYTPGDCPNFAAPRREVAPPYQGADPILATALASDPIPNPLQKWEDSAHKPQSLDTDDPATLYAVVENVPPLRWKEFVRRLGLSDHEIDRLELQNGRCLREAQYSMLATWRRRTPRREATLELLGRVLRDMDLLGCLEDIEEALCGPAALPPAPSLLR

T3: TNF receptor 1 Fc fusion protein (R&D Systems) (human, UniProt P19438 30-211, limits assumed)
T3 construct: bought; also called recombinant TNF receptor 1 (p55); TNFR1-Fc; not shown: Fc part of the bought fusion protein; not described
T3 sequence: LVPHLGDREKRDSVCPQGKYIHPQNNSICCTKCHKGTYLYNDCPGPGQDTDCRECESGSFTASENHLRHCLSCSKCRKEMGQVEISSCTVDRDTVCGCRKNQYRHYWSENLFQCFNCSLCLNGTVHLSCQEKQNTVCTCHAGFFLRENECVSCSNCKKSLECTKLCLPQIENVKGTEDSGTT

B1: TAR2m-21 (other)
chain: EVQLLESGGGLVQPGGSLRLSCAASGFTFTRYSMGWVRQAPGKGLEWVSRIDSYGRGTYYADSVKGRFTISRDNSKNTLYLQMNSLRAEDTAVYYCAKISQFGSNAFDYWGQGTLVTVSS
B2: TAR2m-21-43 (other)
chain: B1 chain with V37L, Y60D
B3: TAR2m-21-23 (other)
VH: B1 chain with T30N, V37L, A61E, S63P, T69S, L115Q
B4: TAR2m-21-48 (other)
chain: B1 chain with V12I, V37L, Y60D, A61T, K76R
B5: TAR2m-21-07 (other)
chain: B1 chain with T30S, Y32C, V37L, Q101K
B6: TAR2m-21-06 (other)
chain: B1 chain with V37I
B7: TAR2m-21-10 (other)
chain: B1 chain with V37L
B8: TAR2h-16 (other)
chain: EVQLLESGGGLVQPGGSLRLSCAASGFTFGNYDMQWVRQAPGKGLEWVSSIDGTGGTTYYADSVKGRFTISRDNSKNTLYLQMNSLRAEDTAVYYCAQETNAFDYWGQGTLVTVSS
notes: anti-human TNFR1 dAb
B9: TAR2h-44 (other)
chain: EVQLLESGGGLVQPGGSLRLSCAASGFTFLQYPMVWVRQAPGKGLEWVSSILAPGGPTYYADSVKGRFTISRDNSKNSLYLQMNSLRAEDTAVYYCAKHPTHTPHPNFDYWGQGTLVTVSS
notes: anti-human TNFR1 dAb
B10: TAR2h-29 (other)
chain: EVQLLESGGGLVQPGGSLRLSCAASGFTFATYNMGWVRQAPGKGLEWVSSIAWLGSETYYADSVKGRFTISRDNSKNTLYLQMNSLRAEDTAVYYCAKHCKAECTGDLFDYWGQGTLVTVSS
notes: anti-human TNFR1 dAb
B11: TAR2h-10 (other)
chain: EVQLLESGGGLVQPGGSLRLSCAASGFTFEWYWMGWVRQAPGKGLEWVSAISGSGGSTYYADSVKGRFTISRDNSKNTLYLQMNSLRAEDTAVYYCAKVKLGGGPNFDYWGQGTLVTVSS
notes: anti-human TNFR1 dAb; tied to the entry under the name TAR2-10; also called TAR2-10
B12: TAR2h-10-55 (other)
chain: B11 chain with T28P, G56D, L81Q, T91A, D108G, W110R
B13: TAR2h-10-7 (other)
chain: B11 chain with E89K, W110R
B14: TAR2h-13 (other)
chain: EVQLLESGGGLVQPGGSLRLSCAASGFTFPADEMYWVRQAPGKGLEWVSSIGWPGGATYYADSVKGRFTISRDNSKNTLYLQMNSLRAEDTAVYYCAKYGRNFDYWGQGTLVTVSS
B15: TAR2h-35 (other)
chain: EVQLLESGGGLVQPGGSLRLSCAASGFTFDAYNMFWVRQAPGKGLEWVSAISPSGRETYYADSVKGRFTISRDNSKNTLYLQMNSLRAEDTAVYYCAKRYPDFDYWGQGTLVTVSS
B16: TAR2h-41 (other)
chain: EVQLLESGGGLVQPGGSLRLSCAASGFTFDKYQMGWVRQAPGKGLEWVSFIDSNGHHTYYADSVKGRFTISRDNSKNTLYLQMNSLRAEDTAVYYCAELDNLSITPFDYWGQGTLVTVSS
notes: anti-human TNFR1 dAb
B17: TAR2h-27 (other)
chain: EVQLLESGGGLVQPGGSLRLSCAASGFTFTDYNMAWVRQAPGKGLEWVSFISQEGHHTYYADSVKGRFTISRDNSKNTLYLQMNSLRAEDTAVYYCAKFSTIATLSLFDYWGQGTLVTVSS
notes: anti-human TNFR1 dAb
B18: TAR2h-18 (other)
chain: EVQLLESGGGLVQPGGSLRLSCAASGFTFADYNMTWVRQAPGKGLEWVSWIDQEGVFTYYADSVKGRFTISRDNSKNTLYLQMNSLRAEDTAVYYCAKDFSAAVMLRTSFDYWGQGTLVTVSS
B19: TAR2h-67 (other)
chain: EVQLLESGGGLVQPGGSLRLSCAASGFTFEDYPMAWVRQAPGKGLEWVSFIGLKGIHTYYADSVKGRFTISRDNSKNTLYLQMNSLRAEDTAVYYCAKDLNNFDYWGQGTLVTVSS
B20: TAR2h-12 (other)
chain: EVQLLESGGGLVQPGGSLRLSCAASGFTFVAYNMGWVRQAPGKGLEWVSFIDMYGAKTYYADSVKGRFTISRDNSKNTLYLQMNSLRAEDTAVYYCAKLCLMDCSGDIFDYWGQGTLVTVSS
B21: TAR2h-14 (other)
chain: EVQLLESGGGLVQPGGSLRLSCAASGFTFDQYDMSWVRQAPGKGLEWVSLIDPSGGHTYYADSVKGRFTISRNNSKNTLYLQMNSLRAEDTAVYYCAKPVFSDWPAVEFDYWGQGTLVTVSS
notes: anti-human TNFR1 dAb
B22: TAR2h-42 (other)
chain: EVQLLESGGGLVQPGGSLRLSCAASGFTFAKYNMYWVRQAPGKGLEWVSAISPKGQHTYYADSVKGRFTISRDNSKNTLYLQMNSLRAEDTAVYYCAEGMGSDAITFDYWGQGTLVTVSS
notes: anti-human TNFR1 dAb
B23: TAR2h-10-4 (other)
chain: B11 chain with V37I
notes: anti-human TNFR1 dAb
B24: TAR2h-10-3 (other)
chain: B11 chain with S21T
notes: anti-human TNFR1 dAb
B25: TAR2h-10-1 (other)
chain: B11 chain with S85N, W110R
notes: anti-human TNFR1 dAb
B26: TAR2h-17 (other)
chain: EVQLLESGGGLVQPGGSLRLSCAASGFTFGGYQMGWVRQAPGKGLEWVSFIDFTGAHTYYADSVKGRFTISRDNSKNTLYLQMNSLRAEDTAVYYCAKLSDDLTLPERFPFDYWGQGTLVTVSS
notes: anti-human TNFR1 dAb
B27: TAR2h-51 (other)
chain: EVQLLESGGGLVQPGGSLRLSCAASGFTFATYNMSWVRQAPGKGLEWVSAIDAGGMHTYYADSVKGRFTISRDNSKNTLYLQMNSLRAEDTAVYYCAKGTEPFDYWGQGTLVTVSS
notes: anti-human TNFR1 dAb
B28: TAR2h-15 (other)
chain: EVRLLESGGGLVQPGGSLRLSCAASGFTFGKYTMTWVRQAPGKGLEWVSHISDDGNSTYYADSVKGRFTISRDNSKNTLYLQMNSLRAEDTAVYYCAKVPILAPRNLFDYWGQGTLVTVSS
notes: anti-human TNFR1 dAb
B29: TAR2h-22 (other)
chain: EVQLLESGGGLVQPGGSLRLSCAASGFTFGEYNMAWVRQAPGKGQEWVSFISTGGHVTYYADSVKGRFTISRDNSKNTLYLQMNSLRAEDTAVYYCAKFSVRFRSSIFDYWGQGTLVTVSS
notes: anti-human TNFR1 dAb
B30: TAR2h-47 (other)
chain: EVQLLESGGGLVQPGGSLRLSCAASGFTFPVYNMAWVRQAPGKGLEWVSFIAGNGQQTYYADSVKGRFTISRDNSKNTLYLQMNSLRAEDTAVYYCAKFASKVSPMSLTDFDYWGQGTLVTVSS
notes: anti-human TNFR1 dAb
B31: TAR2h-34 (other)
chain: EVQLLESGGGLVQPGGSLRLSCAASGFTFPEYGMAWVRQAPGKGLEWVSTISHGGEHTYYADSVKGRFTISRDNSKNTLYLQMNSLRAEDTAVYYCAQHPVSHPKFDYWGQGTLVTVSS
notes: anti-human TNFR1 dAb

Molecular target: T1, mouse TNFR1 on L929 cells
Experiment: cell-based or functional assay

With B1 as the binder, how does the “L929 Cell Assay, Activity (IC50)” value read?
Its value is 400 nM.

How did the “L929 Cell Assay, Activity (IC50)” value turn out when B2 was run?
Its value is 6 nM.

How did the “L929 Cell Assay, Activity (IC50)” value turn out when B3 was run?
Its value is 1 nM.

With B4 as the binder, how does the “L929 Cell Assay, Activity (IC50)” value read?
Its value is 6 nM.

With B5 as the binder, how does the “L929 Cell Assay, Activity (IC50)” value read?
The value was 10 nM.

With B6 as the binder, how does the “L929 Cell Assay, Activity (IC50)” value read?
The value was 100 nM.

For B7, which “L929 Cell Assay, Activity (IC50)” value is on record?
Its value is 30 nM.

Molecular target: T2, human TNFR1 on HeLa cells
Experiment: cell-based or functional assay

How did the “HeLa IL-8 Cell Assay, Activity (IC50)” value turn out when B8 was run?
Its value is 200 nM.

With B9 as the binder, how does the “HeLa IL-8 Cell Assay, Activity (IC50)” value read?
Its value is 300 nM.

Which “HeLa IL-8 Cell Assay, Activity (IC50)” value does the source give for B10 here?
Its value is 300 nM.

B11 was tested. Which “HeLa IL-8 Cell Assay, Activity (IC50)” value did it give?
Its value is 50 nM.

How did the “HeLa IL-8 Cell Assay, Activity (IC50)” value turn out when B12 was run?
Its value is 20 nM.

How did the “HeLa IL-8 Cell Assay, Activity (IC50)” value turn out when B13 was run?
Its value is 30 nM.

How did the “HeLa IL-8 Cell Assay, Activity (IC50)” value turn out when B14 was run?
Its value is 300 nM.

For B15, which “HeLa IL-8 Cell Assay, Activity (IC50)” value is on record?
Its value is 800 nM.

Which “HeLa IL-8 Cell Assay, Activity (IC50)” value does the source give for B16 here?
Its value is 30 nM.

With B17 as the binder, how does the “HeLa IL-8 Cell Assay, Activity (IC50)” value read?
Its value is 3000 nM.

How did the “HeLa IL-8 Cell Assay, Activity (IC50)” value turn out when B18 was run?
The value was 400 nM.

With B19 as the binder, how does the “HeLa IL-8 Cell Assay, Activity (IC50)” value read?
The value was 300 nM.

B20 was tested. Which “HeLa IL-8 Cell Assay, Activity (IC50)” value did it give?
The value was 100 nM.

Which “HeLa IL-8 Cell Assay, Activity (IC50)” value does the source give for B21 here?
Its value is 300 nM.

B22 was tested. Which “HeLa IL-8 Cell Assay, Activity (IC50)” value did it give?
Its value is 10 nM.

Molecular target: T3, TNF receptor 1 Fc fusion protein (R&D …)
Experiment: receptor binding assay

Which IC50 does the source give for B8 here?
Its IC50 is 30 nM.

For B9, which IC50 is on record?
The IC50 was 10 nM.

For B10, which IC50 is on record?
Its IC50 is 300 nM.

How did the IC50 turn out when B11 was run?
Its IC50 is 30 nM.

B23 was tested. Which IC50 did it give?
The IC50 was 8 nM.

Which IC50 does the source give for B24 here?
The IC50 was 11 nM.

How did the IC50 turn out when B25 was run?
Its IC50 is 10 nM.

How did the IC50 turn out when B26 was run?
Its IC50 is 100 nM.

With B27 as the binder, how does the IC50 read?
The IC50 was 80 nM.

Which IC50 does the source give for B16 here?
The IC50 was 8 nM.

How did the IC50 turn out when B28 was run?
Its IC50 is 5 nM.

B29 was tested. Which IC50 did it give?
Its IC50 is 200 nM.

With B17 as the binder, how does the IC50 read?
Its IC50 is 30 nM.

With B30 as the binder, how does the IC50 read?
The IC50 was 8 nM.

Which IC50 does the source give for B31 here?
The IC50 was 300 nM.

How did the IC50 turn out when B21 was run?
The IC50 was 30 nM.

Which IC50 does the source give for B22 here?
Its IC50 is 15 nM.
